The record followed here is the Human Domainome abundance scans (Beltran et al. 2025).

± gives the uncertainty stated by the source.

This series in a line: abundance fitness (aPCA) (normalised: wild type 0, dead -1); higher = more abundant; growth selection in yeast, the domain comes from the species named. As to conditions: Homo sapiens.
Substance “NEDD4-like E3 ubiquitin-protein ligase WWP2 T470N, O00308” yielded an abundance fitness of -0.383 ± 0.11.

As for “NEDD4-like E3 ubiquitin-protein ligase WWP2 T470P, O00308”, the abundance fitness was -0.906 ± 0.14.

“NEDD4-like E3 ubiquitin-protein ligase WWP2 T470Q, O00308” showed an abundance fitness of -0.42 ± 0.056.

“NEDD4-like E3 ubiquitin-protein ligase WWP2 T470R, O00308” came in with an abundance fitness of -0.446 ± 0.044.

Take “NEDD4-like E3 ubiquitin-protein ligase WWP2 T470S, O00308”: the abundance fitness was -0.234 ± 0.036.

“NEDD4-like E3 ubiquitin-protein ligase WWP2 T470V, O00308” returned an abundance fitness of -0.263 ± 0.046.

Substance “NEDD4-like E3 ubiquitin-protein ligase WWP2 T470Y, O00308” showed an abundance fitness of -0.772 ± 0.12.

In turn, “NEDD4-like E3 ubiquitin-protein ligase WWP2 T471A, O00308” yielded an abundance fitness of -0.725 ± 0.064.

“NEDD4-like E3 ubiquitin-protein ligase WWP2 T471C, O00308” returned an abundance fitness of -0.59 ± 0.1.

As to “NEDD4-like E3 ubiquitin-protein ligase WWP2 T471D, O00308”, the abundance fitness was -0.647 ± 0.057.

“NEDD4-like E3 ubiquitin-protein ligase WWP2 T471E, O00308” had an abundance fitness of -0.975 ± 0.11.

“NEDD4-like E3 ubiquitin-protein ligase WWP2 T471F, O00308”: the abundance fitness was -0.556 ± 0.09.

As to “NEDD4-like E3 ubiquitin-protein ligase WWP2 T471G, O00308”, the abundance fitness is -0.673 ± 0.052.

For “NEDD4-like E3 ubiquitin-protein ligase WWP2 T471H, O00308”, the abundance fitness is -0.259 ± 0.057.

“NEDD4-like E3 ubiquitin-protein ligase WWP2 T471I, O00308” had an abundance fitness of -0.701 ± 0.05.

As for “NEDD4-like E3 ubiquitin-protein ligase WWP2 T471K, O00308”, the abundance fitness was -0.734 ± 0.065.

Consider “NEDD4-like E3 ubiquitin-protein ligase WWP2 T471L, O00308”, for which the abundance fitness is -0.887 ± 0.043.

The substance “NEDD4-like E3 ubiquitin-protein ligase WWP2 T471M, O00308” registered an abundance fitness of -0.798 ± 0.094.

For the substance “NEDD4-like E3 ubiquitin-protein ligase WWP2 T471N, O00308”, the abundance fitness was -0.81 ± 0.12.

For “NEDD4-like E3 ubiquitin-protein ligase WWP2 T471P, O00308”, the abundance fitness was -1.15 ± 0.13.

“NEDD4-like E3 ubiquitin-protein ligase WWP2 T471Q, O00308” came in with an abundance fitness of -0.291 ± 0.073.

For “NEDD4-like E3 ubiquitin-protein ligase WWP2 T471R, O00308”, the abundance fitness was -0.62 ± 0.05.

“NEDD4-like E3 ubiquitin-protein ligase WWP2 T471V, O00308” gave an abundance fitness of -0.546 ± 0.054.

“NEDD4-like E3 ubiquitin-protein ligase WWP2 T471W, O00308” returned an abundance fitness of -0.521 ± 0.05.

On to “NEDD4-like E3 ubiquitin-protein ligase WWP2 T471Y, O00308”, for which the abundance fitness is -0.786 ± 0.14.

Consider “NEDD4-like E3 ubiquitin-protein ligase WWP2 T483A, O00308”, for which the abundance fitness is -0.041 ± 0.034.

“NEDD4-like E3 ubiquitin-protein ligase WWP2 T483C, O00308”: the abundance fitness was -0.005 ± 0.063.

With “NEDD4-like E3 ubiquitin-protein ligase WWP2 T483D, O00308”, the abundance fitness is -0.039 ± 0.06.

For the substance “NEDD4-like E3 ubiquitin-protein ligase WWP2 T483E, O00308”, the abundance fitness was -0.032 ± 0.057.

Substance “NEDD4-like E3 ubiquitin-protein ligase WWP2 T483F, O00308” displayed an abundance fitness of -0.377 ± 0.072.

For the substance “NEDD4-like E3 ubiquitin-protein ligase WWP2 T483G, O00308”, the abundance fitness is -0.01 ± 0.032.

“NEDD4-like E3 ubiquitin-protein ligase WWP2 T483I, O00308” came in with an abundance fitness of -0.056 ± 0.038.

The substance “NEDD4-like E3 ubiquitin-protein ligase WWP2 T483K, O00308” registered an abundance fitness of 0.084 ± 0.071.

Regarding “NEDD4-like E3 ubiquitin-protein ligase WWP2 T483L, O00308”, the abundance fitness was -0.039 ± 0.044.

Substance “NEDD4-like E3 ubiquitin-protein ligase WWP2 T483M, O00308” registered an abundance fitness of -0.073 ± 0.055.

Substance “NEDD4-like E3 ubiquitin-protein ligase WWP2 T483N, O00308” came in with an abundance fitness of -0.247 ± 0.076.

Substance “NEDD4-like E3 ubiquitin-protein ligase WWP2 T483P, O00308” came in with an abundance fitness of -0.054 ± 0.071.

In turn, “NEDD4-like E3 ubiquitin-protein ligase WWP2 T483Q, O00308” showed an abundance fitness of -0.106 ± 0.071.

“NEDD4-like E3 ubiquitin-protein ligase WWP2 T483R, O00308”: the abundance fitness was -0.121 ± 0.056.

Take “NEDD4-like E3 ubiquitin-protein ligase WWP2 T483S, O00308”: the abundance fitness was found to be 0.004 ± 0.042.

Substance “NEDD4-like E3 ubiquitin-protein ligase WWP2 T483V, O00308” gave an abundance fitness of -0.03 ± 0.052.

“NEDD4-like E3 ubiquitin-protein ligase WWP2 T483W, O00308” came in with an abundance fitness of -0.163 ± 0.063.

For “NEDD4-like E3 ubiquitin-protein ligase WWP2 T483Y, O00308”, the abundance fitness is -0.123 ± 0.059.

Substance “NEDD4-like E3 ubiquitin-protein ligase WWP2 V459A, O00308” gave an abundance fitness of -0.107 ± 0.051.

Consider “NEDD4-like E3 ubiquitin-protein ligase WWP2 V459C, O00308”, for which the abundance fitness is -0.11 ± 0.065.

Substance “NEDD4-like E3 ubiquitin-protein ligase WWP2 V459D, O00308” returned an abundance fitness of 0.05 ± 0.062.

For “NEDD4-like E3 ubiquitin-protein ligase WWP2 V459E, O00308”, the abundance fitness stood at 0.085 ± 0.036.

“NEDD4-like E3 ubiquitin-protein ligase WWP2 V459F, O00308” displayed an abundance fitness of -0.387 ± 0.094.

In turn, “NEDD4-like E3 ubiquitin-protein ligase WWP2 V459G, O00308” yielded an abundance fitness of -0.111 ± 0.051.

In turn, “NEDD4-like E3 ubiquitin-protein ligase WWP2 V459H, O00308” showed an abundance fitness of -0.103 ± 0.064.

Take “NEDD4-like E3 ubiquitin-protein ligase WWP2 V459I, O00308”: the abundance fitness was -0.106 ± 0.072.

Consider “NEDD4-like E3 ubiquitin-protein ligase WWP2 V459K, O00308”, for which the abundance fitness is -0.077 ± 0.063.

As for “NEDD4-like E3 ubiquitin-protein ligase WWP2 V459L, O00308”, the abundance fitness is -0.073 ± 0.04.

“NEDD4-like E3 ubiquitin-protein ligase WWP2 V459M, O00308” showed an abundance fitness of -0.07 ± 0.05.

With “NEDD4-like E3 ubiquitin-protein ligase WWP2 V459N, O00308”, the abundance fitness is -0.024 ± 0.076.

“NEDD4-like E3 ubiquitin-protein ligase WWP2 V459P, O00308” yielded an abundance fitness of -0.878 ± 0.037.

“NEDD4-like E3 ubiquitin-protein ligase WWP2 V459Q, O00308”: the abundance fitness was -0.019 ± 0.069.
